According to US20230027592A1:

Molecular target: Bovine serum albumin (bovine) (UniProt P02769)

Substance | BSA sequence coverage after digestion (nLC-MS/MS) (% BSA sequence coverage)
GluC protease (Mass Spectrometry Grade, Promega V1651) (from UniProt P0C1U8) (enzyme) | 93.1
Trypsin/LysC protease mix (Mass Spectrometry Grade, Promega V5072) (pool or library) | 91.3
